Legend:
[1] = target: human antigen (immobilised on AR2G sensors in the Octet assay of Example 2) (human); test: BLI (OctetRed 96), antigen immobilised on AR2G sensors, antibody in solution, 1:1 global model, 30 C
[2] = target: TRBV9 family TCR on human peripheral blood T lymphocytes (human); test: FACS sorting with MA-042-FITC, then sequencing of the TCR beta-chain repertoire of the sorted cells
[3] = target: TRBV9 family TCR on human peripheral blood T lymphocytes (human); test: flow cytometry sorting of human peripheral blood mononuclear cells stained with MA-042-FITC, CD3-eFluor405 and CD45-PC5 at 100 ng/ml; dot plot of MA-042 against CD3
[4] = target: TRBV9 family TCR on human peripheral blood T lymphocytes (human)
[5] = target: TRBV9 family TCR on human peripheral blood T lymphocytes (human); test: cell-based or functional assay

Kd [1]: < 1 pM | koff [1]: < 1e-07 s⁻¹ | kon [1]: 319000 M⁻¹ s⁻¹ | enrichment of the sorted fraction's TCR beta-chain libraries with TRBV9-encoded sequences [2]: 93% | MA-042+ (share of cells in the MA-042+ gate) [3]: 1.9% | antibody concentration at which complete elimination of the target population was detected [5]: 500 ng/mL
B1: antibody MA-042 (antibody, human IgG1, kappa, V domains shown)
VH: QVQLVQSGSELKKPGESVKVSCKASGYTFTDYLVHWVRQAPGQGLEWMGWINTYTGTPTYADDFEGRFVFSLDTSVSTANLQISSLKAEDTAVYFCARSWRRGLRGIGFDYWGQGTLVTVSS
VL: DIQMTQSPYSLSASVGDRVTITCKASKSINKYLAWFQQKPGKPNKLLIYDGSTLQSGVPSRFSGSGSGTDFTLTISSLEPEDFATYYCQQHNEYPPTFGQGTKLEIKR
share of CD3+ cells in the TRBV9+ (MA-042-FITC positive) gate after the cytotoxicity assay with 1 ng/ml MA-042 (right panel) [4]: 2% | share of CD3+ cells in the TRBV9+ (MA-042-FITC positive) gate after the cytotoxicity assay with 1 ug/ml MA-042 (left panel) [4]: 0.3% | EC50 in a cytotoxicity assay (elimination of TRBV9-positive cells among CD3+ lymphocytes, flow cytometry after 72 hours) [5]: 0.1 µg/mL
